Reference: US20150343090A1

Biological target: neuropilin-1 (NRP-1) receptor on PPC-1 prostate cancer cells (human) (UniProt O14786)
Experiment: cell-based or functional assay

UniProt O14786, sequence (O14786 22-923): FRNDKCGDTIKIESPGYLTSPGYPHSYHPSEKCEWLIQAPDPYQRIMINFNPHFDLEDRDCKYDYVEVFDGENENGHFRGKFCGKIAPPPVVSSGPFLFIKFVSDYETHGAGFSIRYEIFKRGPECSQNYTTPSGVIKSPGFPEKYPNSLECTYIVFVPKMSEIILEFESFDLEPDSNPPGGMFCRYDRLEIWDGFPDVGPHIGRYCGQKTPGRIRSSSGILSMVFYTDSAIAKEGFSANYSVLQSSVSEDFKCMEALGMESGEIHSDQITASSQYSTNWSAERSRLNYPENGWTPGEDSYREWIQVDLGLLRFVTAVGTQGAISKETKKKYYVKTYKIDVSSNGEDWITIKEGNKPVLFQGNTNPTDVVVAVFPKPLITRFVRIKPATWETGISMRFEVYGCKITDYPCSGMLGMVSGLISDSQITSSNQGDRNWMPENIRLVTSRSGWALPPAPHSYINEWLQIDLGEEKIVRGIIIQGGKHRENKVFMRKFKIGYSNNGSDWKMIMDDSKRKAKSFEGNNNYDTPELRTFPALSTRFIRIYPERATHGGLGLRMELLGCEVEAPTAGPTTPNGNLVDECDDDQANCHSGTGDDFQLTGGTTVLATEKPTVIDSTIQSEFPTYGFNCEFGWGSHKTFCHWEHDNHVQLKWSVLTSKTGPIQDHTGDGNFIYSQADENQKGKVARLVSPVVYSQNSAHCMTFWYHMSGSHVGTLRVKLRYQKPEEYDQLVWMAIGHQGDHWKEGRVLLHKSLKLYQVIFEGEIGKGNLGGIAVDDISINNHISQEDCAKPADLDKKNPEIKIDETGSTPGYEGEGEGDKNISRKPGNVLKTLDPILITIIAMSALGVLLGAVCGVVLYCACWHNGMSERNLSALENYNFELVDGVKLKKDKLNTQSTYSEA

- GFP internalized per PPC-1 cell (cell lysate fluorescence) (GFP molecules per cell): 100000
- nanoshells internalized per PPC-1 cell (calculated from cell lysate fluorescence) (RPARPAR GFP-HGN per cell): 200
Substance: His-tag-GFP-RPARPAR (RPARPAR-modified GFP fusion protein) loaded on NTA-Ni hollow gold nanoshells
